Test results as given in the supplement of paper PMC7877785.
± gives the uncertainty stated by the source.

Assay: self-splicing fitness, log relative to wild type (ln ratio); higher = more splicing; Tetrahymena group I intron in knt gene, E. coli kanamycin selection, DiMSum; sequences stand for … in CUCUCU…GGAGGGAAAAGUUAUCAGGCAUGCACCUGGUAGCUAGUCUUUAAACCAAUAGAUUGCAUCGGUUUAAAAGGCAAGACCGUCAAAUUGCGGGAAAGGGGUCAACAGCCGUUCAGUACCAAGUCUCAGGGGAAACUUUGAGAUGGCCUUGCAAAGGGUAUGGUAAUAAGCUGACGGACAUGGUCCUAACCACGCAGCCAAGUCCUAAGUCAACAGAUCUUCUGUUGAUAUGGAUGCAGUUCACAGACUAAAUGUCGGUCGGGGAAGAUGUAUUCUUCUCAUAAGAUAUAGUCGGACCUCUCCUUAAUGGGAGCUAGCGGAUGAAGUGAUGCAACACUGGAGCCGCUGGGAACUAAUUUGUAUGCGAAAGUAUAUUGAUUAGUUUUGGAGUACUCGUGGUCG
In short: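 Pooled colonies went to amplicon sequencing on an Illumina HiSeq 2500 after six replicate transformations. The plates were LB agar with 100 μg/mL carbenicillin, 50 μM IPTG and 0.2% rhamnose, with or without 25 μg/mL kanamycin, incubated overnight at 37°C or 30°C. The E. coli BL21(DE3) library had all eight P1ex-region intron nucleotides randomised, the intron placed in the knt kanamycin-resistance gene on pET-22b(+). DiMSum fitness is the error-weighted combination of replicate fold changes, kanamycin against none, normalised to wild type.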

Sequence	self-splicing fitness (ln) (30 °C)	self-splicing fitness (ln) (37 °C)
AAGUAGCAAUAUUACGGGGG	-2.88 ± 0.26	-3.2 ± 0.35
AAGUAGCAAUAUUACGGUGU	-2.2 ± 0.09	-1.23 ± 0.099
AAGUAGCAAUAUUACGUAUU	-1.97 ± 0.11	-1.07 ± 0.14
AAGUAGCAAUAUUACGUCGA	-1.34 ± 0.1	-1.07 ± 0.11
AAGUAGCAAUAUUACGUCUC	-1.59 ± 0.12	-0.405 ± 0.14
AAGUAGCAAUAUUACGUCUG	-0.515 ± 0.086	0.168 ± 0.11
AAGUAGCAAUAUUACGUGGA	-3.83 ± 0.26	-2.14 ± 0.16
AAUAAGCAAUAUUACGAAGG	-3.39 ± 0.48	-2.04 ± 0.39
AAUAAGCAAUAUUACGACCU	0.104 ± 0.12	0.726 ± 0.16
AAUAAGCAAUAUUACGACUG	-0.872 ± 0.088	-1.18 ± 0.11
AAUAAGCAAUAUUACGAUCU	0.041 ± 0.069	0.493 ± 0.087
AAUAAGCAAUAUUACGCAAC	-2.79 ± 0.3	-0.975 ± 0.2
AAUAAGCAAUAUUACGCACA	-0.471 ± 0.099	0.253 ± 0.13
AAUAAGCAAUAUUACGCAUC	-2.56 ± 0.12	-1.66 ± 0.15
AAUAAGCAAUAUUACGCGGG	-2.62 ± 0.13	-1.35 ± 0.14
AAUAAGCAAUAUUACGCUCG	-0.686 ± 0.14	0.0576 ± 0.19
AAUAAGCAAUAUUACGGAAG	-3.52 ± 0.28	-1.86 ± 0.39
AAUAAGCAAUAUUACGGAAU	-2.69 ± 0.15	-0.645 ± 0.11
AAUAAGCAAUAUUACGGACG	-0.851 ± 0.15	-0.397 ± 0.15
AAUAAGCAAUAUUACGGCGC	0.251 ± 0.12	-0.478 ± 0.13
AAUAAGCAAUAUUACGGCUA	0.107 ± 0.1	0.0369 ± 0.13
AAUAAGCAAUAUUACGGUGA	-1.18 ± 0.093	-0.256 ± 0.11
AAUAAGCAAUAUUACGUACC	-0.867 ± 0.14	-0.89 ± 0.15
AAUAAGCAAUAUUACGUAGA	-1.51 ± 0.11	-0.998 ± 0.13
AAUAAGCAAUAUUACGUCCC	-0.502 ± 0.17	0.393 ± 0.26
AAUAAGCAAUAUUACGUUAC	-3.62 ± 0.18	-1.39 ± 0.14

Sequence	self-splicing fitness (ln) (30 °C)	self-splicing fitness (ln) (37 °C)
AAUCAGCAAUAUUACGAGAC	-3.64 ± 0.27	-0.528 ± 0.12
AAUCAGCAAUAUUACGAGGA	-2.13 ± 0.12	-1.23 ± 0.11
AAUCAGCAAUAUUACGAUGU	0.218 ± 0.053	0.543 ± 0.08
AAUCAGCAAUAUUACGCAAC	-1.32 ± 0.11	-0.666 ± 0.13
AAUCAGCAAUAUUACGCAGC	-1.36 ± 0.15	-0.207 ± 0.14
AAUCAGCAAUAUUACGCAUG	-0.409 ± 0.038	0.349 ± 0.058
AAUCAGCAAUAUUACGCGCG	0.0814 ± 0.079	-0.098 ± 0.1
AAUCAGCAAUAUUACGCGGG	-1.33 ± 0.095	-1.42 ± 0.099
AAUCAGCAAUAUUACGCGGU	-2.35 ± 0.12	-1.14 ± 0.14
AAUCAGCAAUAUUACGCUCA	0.294 ± 0.074	0.323 ± 0.1
AAUCAGCAAUAUUACGCUCU	-0.00647 ± 0.077	0.0812 ± 0.097
AAUCAGCAAUAUUACGCUGA	-2.61 ± 0.17	-1.76 ± 0.24
AAUCAGCAAUAUUACGCUUC	-1.77 ± 0.069	-0.398 ± 0.088
AAUCAGCAAUAUUACGGACG	-0.448 ± 0.068	0.478 ± 0.12
AAUCAGCAAUAUUACGGCUA	-0.0319 ± 0.079	0.406 ± 0.094
AAUCAGCAAUAUUACGUACU	0.336 ± 0.084	0.692 ± 0.11
AAUCAGCAAUAUUACGUAUC	-0.504 ± 0.044	0.251 ± 0.068
AAUCAGCAAUAUUACGUCAG	-1.86 ± 0.12	-0.81 ± 0.12
AAUCAGCAAUAUUACGUCUG	-1.16 ± 0.049	-0.895 ± 0.065
AAUCAGCAAUAUUACGUGGC	-3.57 ± 0.17	-1.83 ± 0.12
AAUCAGCAAUAUUACGUUGC	-3.97 ± 0.23	-3.16 ± 0.22
AAUGAGCAAUAUUACGACAC	-2.71 ± 0.31	
AAUGAGCAAUAUUACGACGA	-2.44 ± 0.34	-3.22 ± 0.47
AAUGAGCAAUAUUACGACGU	-1.13 ± 0.11	-0.443 ± 0.12
AAUGAGCAAUAUUACGAGGC		-3.11 ± 0.4
AAUGAGCAAUAUUACGAUGU	-2.94 ± 0.15	-1.97 ± 0.17

Sequence	self-splicing fitness (ln) (30 °C)	self-splicing fitness (ln) (37 °C)
AAUGAGCAAUAUUACGCAGU	-2.51 ± 0.2	-3.29 ± 0.31
AAUGAGCAAUAUUACGCCGA	-2.34 ± 0.3	-1.75 ± 0.43
AAUGAGCAAUAUUACGCUUA	-1.94 ± 0.14	-0.919 ± 0.12
AAUGAGCAAUAUUACGCUUG	-3.09 ± 0.17	-2.11 ± 0.18
AAUGAGCAAUAUUACGGAAC	-3.52 ± 0.47	
AAUGAGCAAUAUUACGGGCG		-3.07 ± 0.47
AAUGAGCAAUAUUACGGUCC	-2.47 ± 0.45	
AAUGAGCAAUAUUACGUCAA	-2.4 ± 0.21	-2.59 ± 0.46
AAUGAGCAAUAUUACGUCAC	-2.93 ± 0.41	-1.92 ± 0.29
AAUGAGCAAUAUUACGUCCU	-1.45 ± 0.13	-0.218 ± 0.12
AAUGAGCAAUAUUACGUCUC	-2.96 ± 0.23	-2.19 ± 0.24
AAUGAGCAAUAUUACGUGGA	-3.35 ± 0.32	-3.04 ± 0.35
AAUGAGCAAUAUUACGUGGG	-4.39 ± 0.36	-2.87 ± 0.21
AAUGAGCAAUAUUACGUUCC	-2.71 ± 0.17	-1.43 ± 0.2
AAUUAGCAAUAUUACGACCG	-1.2 ± 0.13	0.0816 ± 0.21
AAUUAGCAAUAUUACGAUAG	-3.1 ± 0.26	-1.75 ± 0.18
AAUUAGCAAUAUUACGCAAU	-2.4 ± 0.13	-1.74 ± 0.17
AAUUAGCAAUAUUACGCCGA	-1.34 ± 0.26	-0.981 ± 0.21
AAUUAGCAAUAUUACGCCUC	-1.22 ± 0.18	-2.47 ± 0.25
AAUUAGCAAUAUUACGCUGU	-1.44 ± 0.16	-1.26 ± 0.2
AAUUAGCAAUAUUACGGAAC	-2.77 ± 0.13	-2.18 ± 0.2
AAUUAGCAAUAUUACGGAUU	-2.2 ± 0.12	-1.3 ± 0.14
AAUUAGCAAUAUUACGGCAC	-1.11 ± 0.16	-0.154 ± 0.21
AAUUAGCAAUAUUACGGUAA	-2.72 ± 0.2	-0.655 ± 0.22
AAUUAGCAAUAUUACGGUAU	-1.29 ± 0.097	-0.598 ± 0.11
